In test [1] the target is CD20 on lymphoma and leukemia cell lines (human) (UniProt P11836). The test is described as follows: cell-based or functional assay.
The target of test [2] is fusion protein containing the A3B3 domain of CEA (UniProt P06731). The test is described as follows: competitive ELISA on coated A3B3 fusion protein; competitor HRP-conjugated hMN-14 IgG (1 nM).

Chain of CD20 on lymphoma and leukemia cell lines (human) (P11836 whole entry, the tested form may be a part): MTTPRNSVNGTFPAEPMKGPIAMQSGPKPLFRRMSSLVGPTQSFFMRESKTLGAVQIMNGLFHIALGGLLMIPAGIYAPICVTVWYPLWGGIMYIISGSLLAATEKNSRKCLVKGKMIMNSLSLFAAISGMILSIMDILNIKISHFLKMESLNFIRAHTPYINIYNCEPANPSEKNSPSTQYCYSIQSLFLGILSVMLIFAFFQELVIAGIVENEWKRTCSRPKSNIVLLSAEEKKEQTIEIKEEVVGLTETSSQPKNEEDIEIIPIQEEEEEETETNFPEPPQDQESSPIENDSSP

As to 20-Rap (antibody), in test [1], the EC50, in vitro cytotoxicity, Daudi and Ramos cells was 0.0001 µM; the EC50, in vitro cytotoxicity, Jeko-1 cells is 20 µM. Regarding TF2 (bispecific antibody), in test [2], the fold of avidity against TF1 came to 2 fold.

These data come from patent US20110274704A1.
